According to patent CN109467603A (BIOCELLS BEIJING BIOTECHNOLOGY CO LTD, dated 2019):
Blank lines part the entries; values can stand above or below the molecule they belong to.

Columns and labels:
[1] = biological target: 生物素化PD-1 (PD-1:PD-L1抑制剂筛选试剂盒, AcroBiosystems，EP-101) (UniProt Q15116); test: competition ELISA, PD-L1 coated, biotinylated PD-1; positive control antibody
T细胞表面PD-1 (human) [2] = biological target: T细胞表面PD-1 (human) (UniProt Q15116); test: flow cytometry, MNC co-cultured with DC, no BXOS antibody
T细胞表面PD-1 (human) [3] = biological target: T细胞表面PD-1 (human) (UniProt Q15116); test: flow cytometry, MNC cultured alone 3 days, no BXOS antibody
[4] = biological target: T1, 人PD-1重组蛋白(Acro Biosystems，PD-1-H5221) (human, UniProt Q15116 25-167); test: phage ELISA on coated human PD-1 recombinant protein
T1 construct: Bought
T1 sequence (Q15116 25-167 limits assumed): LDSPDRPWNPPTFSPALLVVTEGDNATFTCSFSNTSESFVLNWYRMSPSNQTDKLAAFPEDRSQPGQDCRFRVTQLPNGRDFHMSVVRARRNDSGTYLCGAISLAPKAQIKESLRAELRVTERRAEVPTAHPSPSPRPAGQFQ

- 阻断率 [1]: 70.7 %
Molecule: 阳性对照αPD-1单克隆抗体:Anti-PD1mAb，Human(IgG4)Lot No.B52-63NS1-AS,ACRO Biosystems (antibody)

- PD-1表达量 (% of T cells stained by PD-1-PE) (T细胞表面PD-1 (human) [2]): 32.6 %
- PD-1表达量 (% of T cells stained by PD-1-PE) (T细胞表面PD-1 (human) [3]): 26.2 %
Molecule: 商品化的抗PD-1的流式抗体PD-1-PE(biolegend，329906)

- binding result [4]: binds
B4: scFv4 (scFv)
scFv: QVQLVQSGGGLVKPGGSLRLSCVASGFTFSNSGMHWVRQAPGKGLEWVAVIWYDGSKRYYADSVKGRFTISRDNSKNTLFLQMNSLRAEDTAVYYCATNDDYWGQGTLVTVSSGGGGSGGGGSGGGGSEIVMTQSPATLSLSPGERATLSCRASQSVSSNLAWYQQKPGQAPRLLIYDASTRATGIPARFSGSGSGTDFTLTISSLQPEDFATYYCLQDYNYPRTFGQGTKLEIKR

- binding result [4]: binds
B5: scFv3 (scFv)
scFv: QVQLVQSGAEVKKPGSSVKVSCKASGGTFSSYAISWVRQAPGQGLEWMGRIIPILGIANYAQKFQGRVTITADKSTSTAYKELSSLRSEDTAVYYCAAPLPKNGVYPWGQGTLVTVSSGGGGSGGGGSGGGGSGGGGSEIVMTQSPATLSSSPGERVTLSCRASQSVTSHLAWYQQRPGQAPRLLIYDASKRATGIPARFSGSGSGTDFTLTISSLEPEDFATYYCLQDYRYPRTFGQGTKVEIKR

The next lines start with the molecule.

B1: scFv5 (scFv)
scFv: QVQLVESGGGVVQPGRSLRLDCKASGITFSNSGMHWVRQAPGKGLEWVAVIWYDGSKRYYADSVKGRFTISRDNSKNTLFLQMNSLRAEDTAVYYCATNDDYWGQGTLVTVSSGGGGSGGGGSGGGGSEIVMTQSPATLSLSPGERATLSCRASQSVSSSVSWYQQKLGQAPRLLIYDASNRATGIPARFSGSGSGTDFTLTISSLEPEDFAVYYCQQRSKWPLTFGAGTKVEIKR
- binding result [4]: binds

B2: scFv2 (scFv)
scFv: QVQLVESGGGVVQPGKSLRLSCAASGFSFRNYDMHWVRQAPGRGLEWVAVTWYDGSNKYYADSVKGRFTISRDNSKNTVYLHINSLRAEDTAVYYCAKDQAHYYNYSTGHFSYYFDSWGQGTLVTVSGGGGSGGGGSGGGGSEIVLTQSPATLSLSPGQRATLSCRTSQTIRKHLAWYQQKPGQAPRLLVYDISSRATGIPARFSGSGSGTDFTLTISSLQPDDFATYYCQRYDTYPRTFGQGTKVEIKR
- binding result [4]: binds

B3: scFv1 (scFv)
scFv: QVQLVQSGGDLVKPGGSLRLSCATSGFTFSTYNMHWVRQAPGKGLEWVSSISRSSDYIYYADSVKGRFTMSRDNAKTSLYLQMNSLRADDTAVYYCARDSWIYDGSGYSSDAFDIWGQGTMVTVSGGGGSGGGGSGGGGSEIVLTQSPATLSLSPGERATLSCRASQSISSYLSWYQQKPGQAPRLLIYDASNRATGIPARFSGGGSGTDFTLTISSLEPEDFAVYYCQQRNSWPLTFGGGTKVEIKR
- binding result [4]: binds
